From publication PMC4467794

Molecular target: Mcx1-3xFLAG, wildtype, purified recombinant (S. cerevisiae) (UniProt P38323)
Experiment: co-IP

Sequence of Mcx1-3xFLAG, wildtype, purified recombinant (S. cerevisiae) (P38323 14-520): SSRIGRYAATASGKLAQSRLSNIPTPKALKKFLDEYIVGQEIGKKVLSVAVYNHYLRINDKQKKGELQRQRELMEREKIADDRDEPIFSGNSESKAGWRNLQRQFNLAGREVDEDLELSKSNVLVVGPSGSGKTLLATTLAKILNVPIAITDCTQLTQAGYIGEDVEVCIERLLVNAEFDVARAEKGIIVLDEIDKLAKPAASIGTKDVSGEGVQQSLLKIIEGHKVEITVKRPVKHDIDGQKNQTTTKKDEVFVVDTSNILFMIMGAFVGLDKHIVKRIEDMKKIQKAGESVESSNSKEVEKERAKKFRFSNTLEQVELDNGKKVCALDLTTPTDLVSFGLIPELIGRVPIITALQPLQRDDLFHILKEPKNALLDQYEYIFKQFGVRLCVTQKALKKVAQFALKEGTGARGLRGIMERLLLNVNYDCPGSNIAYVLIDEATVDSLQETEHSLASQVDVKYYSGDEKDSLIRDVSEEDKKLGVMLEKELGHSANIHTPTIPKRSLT

How did the fold amount bound relative to holoHem1 turn out when “apoHem1 (PLP-free Hem1, yeast ALA synthase), purified recombinant (from UniProt P09950 23-548) (enzyme)” was run?
The fold amount bound relative to holoHem1 was 10 fold.
